B1: HYOU1 (protein, UniProt Q9Y4L1 33-999, looked up)
Hypoxia up-regulated protein 1: LAVMSVDLGSESMKVAIVKPGVPMEIVLNKESRRKTPVIVTLKENERFFGDSAASMAIKNPKATLRYFQHLLGKQADNPHVALYQARFPEHELTFDPQRQTVHFQISSQLQFSPEEVLGMVLNYSRSLAEDFAEQPIKDAVITVPVFFNQAERRAVLQAARMAGLKVLQLINDNTATALSYGVFRRKDINTTAQNIMFYDMGSGSTVCTIVTYQMVKTKEAGMQPQLQIRGVGFDRTLGGLEMELRLRERLAGLFNEQRKGQRAKDVRENPRAMAKLLREANRLKTVLSANADHMAQIEGLMDDVDFKAKVTRVEFEELCADLFERVPGPVQQALQSAEMSLDEIEQVILVGGATRVPRVQEVLLKAVGKEELGKNINADEAAAMGAVYQAAALSKAFKVKPFVVRDAVVYPILVEFTREVEEEPGIHSLKHNKRVLFSRMGPYPQRKVITFNRYSHDFNFHINYGDLGFLGPEDLRVFGSQNLTTVKLKGVGDSFKKYPDYESKGIKAHFNLDESGVLSLDRVESVFETLVEDSAEEESTLTKLGNTISSLFGGGTTPDAKENGTDTVQEEEESPAEGSKDEPGEQVELKEEAEAPVEDGSQPPPPEPKGDATPEGEKATEKENGDKSEAQKPSEKAEAGPEGVAPAPEGEKKQKPARKRRMVEEIGVELVVLDLPDLPEDKLAQSVQKLQDLTLRDLEKQEREKAANSLEAFIFETQDKLYQPEYQEVSTEEQREEISGKLSAASTWLEDEGVGATTVMLKEKLAELRKLCQGLFFRVEERKKWPERLSALDNLLNHSSMFLKGARLIPEMDQIFTEVEMTTLEKVINETWAWKNATLAEQAKLPATEKPVLLSKDIEAKMMALDREVQYLLNKAKFTKPRPRPKDKNGTRAEPPLNASASDQGEKVIPPAGQTEDAEPISEPEKVETGSEPGDTEPLELGGPGAEPEQKEQSTGQKRPLKNDEL
B2: KIAA1468 (protein, UniProt Q9P260 2-1216, looked up)
RAB11-binding protein RELCH: AAMAPGGSGSGGGVNPFLSDSDEDDDEVAATEERRAVLRLGAGSGLDPGSAGSLSPQDPVALGSSARPGLPGEASAAAVALGGTGETPARLSIDAIAAQLLRDQYLLTALELHTELLESGRELPRLRDYFSNPGNFERQSGTPPGMGAPGVPGAAGVGGAGGREPSTASGGGQLNRAGSISTLDSLDFARYSDDGNRETDEKVAVLEFELRKAKETIQALRANLTKAAEHEVPLQERKNYKSSPEIQEPIKPLEKRALNFLVNEFLLKNNYKLTSITFSDENDDQDFELWDDVGLNIPKPPDLLQLYRDFGNHQVTGKDLVDVASGVEEDELEALTPIISNLPPTLETPQPAENSMLVQKLEDKISLLNSEKWSLMEQIRRLKSEMDFLKNEHFAIPAVCDSVQPPLDQLPHKDSEDSGQHPDVNSSDKGKNTDIHLSISDEADSTIPKENSPNSFPRREREGMPPSSLSSKKTVHFDKPNRKLSPAFHQALLSFCRMSADSRLGYEVSRIADSEKSVMLMLGRCLPHIVPNVLLAKREELIPLILCTACLHPEPKERDQLLHILFNLIKRPDDEQRQMILTGCVAFARHVGPTRVEAELLPQCWEQINHKYPERRLLVAESCGALAPYLPKEIRSSLVLSMLQQMLMEDKADLVREAVIKSLGIIMGYIDDPDKYHQGFELLLSALGDPSERVVSATHQVFLPAYAAWTTELGNLQSHLILTLLNKIEKLLREGEHGLDEHKLHMYLSALQSLIPSLFALVLQNAPFSSKAKLHGEVPQIEVTRFPRPMSPLQDVSTIIGSREQLAVLLQLYDYQLEQEGTTGWESLLWVVNQLLPQLIEIVGKINVTSTACVHEFSRFFWRLCRTFGKIFTNTKVKPQFQEILRLSEENIDSSAGNGVLTKATVPIYATGVLTCYIQEEDRKLLVGFLEDVMTLLSLSHAPLDSLKASFVELGANPAYHELLLTVLWYGVVHTSALVRCTAARMFELTLRGMSEALVDKRVAPALVTLSSDPEFSVRIATIPAFGTIMETVIQRELLERVKMQLASFLEDPQYQDQHSLHTEIIKTFGRVGPNAEPRFRDEFVIPHLHKLALVNNLQIVDSKRLDIATHLFEAYSALSCCFISEDLMVNHFLPGLRCLRTDMEHLSPEHEVILSSMIKECEQKVENKTVQEPQGSMSIAASLVSEDTKTKFLNKMGQLTTSGAMLANVFQRKK
B3: HEATR2 (protein, UniProt Q86Y56 2-855, looked up)
Dynein axonemal assembly …: AALGVAEAVAAPHPAEGAETAEAVELSRALSRLLPGLEADSKPGRRRALEALRRALEEPGPAADPTAFQGPWARLLLPRLLRCLSDPAEGCRALAVHLLDLGLRRAARPRDALPRLLPALAARLAGPVPARRPPEACEELRLALVQLLGLAVDLCGAALAPHLDDALRALRCSLLDPFAAVRRESCSCAAALAQATPDHFHMQSESLIGPLMQTISHQHWKVRVAAIEATGAVIHFGNGKSVDDVLSHFAQRLFDDVPQVRRAVASVVGGWLLCLRDRYSFFHKLIPLLLSSLNDEVPEVRQLAASLWEDVGLQWQKENEEDLKDKLDFAPPTPPHYPPHERRPVLGCRELVFRNLSKILPALCHDITDWVVGTRVKSAQLLPVLLLHAEDHATQHLEVVLRTLFQACTDEEAAVVQSCTRSAELVGTFVSPEVFLKLILSTLKKTPSASGLLVLASAMRGCPREALQPHLAAIATELAQAHICQASENDLYLERLLLCVQALVSVCHEDCGVASLQLLDVLLTIVALAGATGLRDKAQETMDSLAMVEGVSSCQDLYRKHIGPLLERVTASHLDWTAHSPELLQFSVIVAQSGPALGEALPHVVPTLRACLQPSQDPQMRLKLFSILSTVLLRATDTINSQGQFPSYLETVTKDILAPNLQWHAGRTAAAIRTAAVSCLWALTSSEVLSAEQIRDVQETLMPQVLTTLEEDSKMTRLISCRIINTFLKTSGGMTDPEKLIRIYPELLKRLDDVSNDVRMAAASTLVTWLQCVKGANAKSYYQSSVQYLYRELLVHLDDPERAIQDAILEVLKEGSGLFPDLLVRETEAVIHKHRSATYCEQLLQHVQAVPATQ
B4: ZG16B (protein, UniProt Q96DA0 17-172, looked up)
Pancreatic adenocarcinoma …: GKMYGPGGGKYFSTTEDYDHEITGLRVSVGLLLVKSVQVKLGDSWDVKLGALGGNTQEVTLQPGEYITKVFVAFQAFLRGMVMYTSKDRYFYFGKLDGQISSAYPSQEGQVLVGIYGQYQLLGIKSIGFEWNYPLEEPTTEPPVNLTYSANSPVGR
B5: TRIM56 (protein, UniProt Q9BRZ2 1-755, looked up)
E3 ubiquitin-protein ligase …: MVSHGSSPSLLEALSSDFLACKICLEQLRAPKTLPCLHTYCQDCLAQLADGGRVRCPECRETVPVPPEGVASFKTNFFVNGLLDLVKARACGDLRAGKPACALCPLVGGTSTGGPATARCLDCADDLCQACADGHRCTRQTHTHRVVDLVGYRAGWYDEEARERQAAQCPQHPGEALRFLCQPCSQLLCRECRLDPHLDHPCLPLAEAVRARRPGLEGLLAGVDNNLVELEAARRVEKEALARLREQAARVGTQVEEAAEGVLRALLAQKQEVLGQLRAHVEAAEEAARERLAELEGREQVARAAAAFARRVLSLGREAEILSLEGAIAQRLRQLQGCPWAPGPAPCLLPQLELHPGLLDKNCHLLRLSFEEQQPQKDGGKDGAGTQGGEESQSRREDEPKTERQGGVQPQAGDGAQTPKEEKAQTTREEGAQTLEEDRAQTPHEDGGPQPHRGGRPNKKKKFKGRLKSISREPSPALGPNLDGSGLLPRPIFYCSFPTRMPGDKRSPRITGLCPFGPREILVADEQNRALKRFSLNGDYKGTVPVPEGCSPCSVAALQSAVAFSASARLYLINPNGEVQWRRALSLSQASHAVAALPSGDRVAVSVAGHVEVYNMEGSLATRFIPGGKASRGLRALVFLTTSPQGHFVGSDWQQNSVVICDGLGQVVGEYKGPGLHGCQPGSVSVDKKGYIFLTLREVNKVVILDPKGSLLGDFLTAYHGLEKPRVTTMVDGRYLVVSLSNGTIHIFRVRSPDS

Each molecule was assayed on Hsp90 complexes in K562 cell extract (assay: Nano-LC-MS/MS of PU-beads pull-downs). Conditions: protein identified in PU-beads pull-down of K562 cell extract, Prep 1; QSTAR-Elite QTof MS.
Assay type: binding
Experimental: Protein cargo isolated from cell lysate with PU-beads or control-beads was subjected to proteomic analysis by nano liquid chromatography coupled to tandem mass spectrometry (nano LC-MS/MS). Initial protein identification was performed using the Mascot search engine, and was further evaluated using Scaffold Proteome Software (Tables 5a-d).
(§1) Lysates prepared as mentioned above were first pre-cleaned by incubation with control beads overnight at 4° C. […] Beads were washed with lysis buffer, proteins eluted by boiling in 2% SDS, separated on a denaturing gel and Coomassie stained according to manufacturer's procedure (Biorad). […] Analyses of the batch purified pools were done using a QSTAR-Elite hybrid quadrupole time-of-flight mass spectrometer (QTof MS) (AB/MDS Sciex), equipped with a nano spray ion source. Peptide mixtures (in 20 μL) are loaded onto a trapping guard column (0.3×5-mm PepMap C18 100 cartridge from LC Packings) using an Eksigent nano MDLC system (Eksigent Technologies, Inc) at a flow rate of 20 μL/min. […] Electrospray ionization (ESI) needle voltage was set at about 1800 V. The mass analyzer is operated in automatic, data-dependent MS/MS acquisition mode, with the threshold set to 10 counts per second of doubly or triply charged precursor ions selected for fragmentation scans. Survey scans of 0.25 sec are recorded from 400 to 1800 amu; up to 3 MS/MS scans are then collected sequentially for the selected precursor ions, recording from 100 to 1800 amu. The collision energy is automatically adjusted in accordance with the m/z value of the precursor ions selected for MS/MS. Selected precursor ions are excluded from repeated selection for 60 sec after the end of the corresponding fragmentation duty cycle. […] One missed tryptic cleavage site was allowed, precursor ion mass tolerance=0.4 Da fragment ion mass tolerance=0.4 Da, protein modifications were allowed for Met-oxide, Cys-acrylamide and N-terminal acetylation. MudPit scoring was typically applied with ‘require bold red’ activated, and using significance threshold score p<0.05. Unique peptide counts (or ‘spectral counts’) and percent sequence coverages for all identified proteins were exported to Scaffold Proteome Software (version 2_06_01, www.proteomesoftware.com) for further bioinformatic analysis (Table 5a). Using output from Mascot, Scaffold validates, organizes, and interprets mass spectrometry data, allowing more easily to manage large amounts of data, to compare samples, and to search for protein modifications.
In the case of B1, the “Number of Assigned Spectra, K562 Prep 1” value is reported as 0. For B2, the “Number of Assigned Spectra, K562 Prep 1” value was 0. With B3 the “Number of Assigned Spectra, K562 Prep 1” value was 5. With B4 the “Number of Assigned Spectra, K562 Prep 1” value was 0. With B5 the “Number of Assigned Spectra, K562 Prep 1” value was 0.

Same assay, conditions: protein identified in PU-beads pull-down of K562 cell extract, Prep 2; QSTAR-Elite QTof MS
B1 was tested, and the “Number of Assigned Spectra, K562 Prep 2” value was 3. B2 was tested, and the “Number of Assigned Spectra, K562 Prep 2” value was 0. B3 was tested, and the “Number of Assigned Spectra, K562 Prep 2” value was 2. In the case of B4, the “Number of Assigned Spectra, K562 Prep 2” value is reported as 3. B5 was tested, and the “Number of Assigned Spectra, K562 Prep 2” value was 0.

The molecules below were run on Hsp90 complexes in Mia-PaCa-2 cell extract (assay: Nano-LC-MS/MS of PU-beads pull-downs). Conditions: protein identified in PU-beads pull-down of Mia-PaCa-2 cell extract; QSTAR-Elite QTof MS.
Assay type: binding, human
Experimental: as §1
B1 was tested, and the “Number of Assigned Spectra, Mia-Paca 2” value was 0. In the case of B2, the “Number of Assigned Spectra, Mia-Paca 2” value is reported as 3. B3 was tested, and the “Number of Assigned Spectra, Mia-Paca 2” value was 11. B4 was tested, and the “Number of Assigned Spectra, Mia-Paca 2” value was 0. With B5 the “Number of Assigned Spectra, Mia-Paca 2” value was 3.

— patent US20220074941A1, “HSP90 COMBINATION THERAPY” (Sloan-Kettering Institute for Cancer Research, priority 2011, published 2022)
